# Measured values taken from US20210322404A1, “FGFR REGULATION FOR THE TREATMENT OF VIRAL INFECTIONS” (ETH ZURICH, priority 2016, published 2021).
# Entries after “also recorded” stand apart in the source; their conditions may differ.
# Experiments:
# [1] = system: HSV-1; experiment: Ex vivo HSV-1 infection of epidermal sheets from mouse tail skin; assay type: cell-based, Herpes Simplex Virus type 1; conditions: HSV-1 MOI=2, 48 h, FGF7 15 ng/ml, NSC23766 50 μM, AZD4547 1 μM
# Method: FIG. 7D pertains to epidermal sheets from tail skin of wild-type mice that were infected ex vivo with HSV-1 (MOI=2) in the presence or absence of IFNα, FGF7, NSC23766 or AZD4547 and analyzed by immunofluorescence staining 48 h after infection with antibodies against Glyc-D (red). […] Cell nuclei were stained using DAPI (blue). Magnification bar: 800 μm. Values obtained for HSV-1 infected cells in (A-C) without additional treatment were set to 1.
# HSV-1 infection of epidermal sheets from mouse tails was performed as previously described (Rahn et al., J. Invest. Dermatol 135, 3009-3016, 2015). Briefly, skin was removed from the tails of 3 month-old mice, followed by separation of the epidermis from the dermis by dispase treatment (5 mg/ml). After floating the epidermal sheets on serum-free DMEM overnight, they were incubated with HSV-1 alone (MOI=2) or in combination with FGF7 (15 ng/ml), IFNα (1000 U/ml) and/or NSC23766 (50 μM) or AZD4547 (1 μM) for 48 h and subsequently fixed in 4% PFA for 1 h at RT. The sheets were then incubated in blocking solution (PBS 2% BSA/1% fish skin gelatin/0.05% Triton Tx-100) for 2 h at RT and stained overnight at 4° C. with an antibody against Glyc-D diluted in blocking solution. […]
# [2] = system: interferon-stimulated genes (ISGs); experiment: ISG expression in mouse keratinocytes treated with FGF7 and/or IFNα (qRT-PCR); assay type: cell-based
# [3] = system: interferon-stimulated genes (ISGs); experiment: ISG expression in human keratinocytes (HaCaT, primary foreskin) treated with FGF7, FGF10 and/or IFNα (qRT-PCR); assay type: cell-based; conditions: human primary foreskin keratinocytes and HaCaT, FGF7 10 ng/ml and IFNα 500 U/ml, 16 h
# Method: FIG. 2F relates to serum-starved immortalized human keratinocytes (HaCaT cell line) that were treated for 6 h with FGF7, FGF10 (both 10 ng/ml) or vehicle (CTRL). RNA was analyzed by qRT-PCR for the expression of the indicated ISGs relative to RPLP0. Mean expression levels in CTRL cells were set to 1. Representative data from three experiments are shown. Scatter plot and mean values are shown in (A-D). Each dot represents a biological replicate.
# FIGS. 3E and F pertain to confluent human primary foreskin keratinocytes and (E) or HaCaT cells (F) that were serum-starved for 24 h and treated with FGF7 (10 ng/ml) and/or IFNα (500 U/ml) for 16 h. Cells were analyzed for ISG mRNA levels by qRT-PCR relative to RPLP0. Mean expression levels in vehicle-treated (CTRL) cells were set to 1.
# The human HaCaT keratinocyte cell line was cultured in DMEM (Sigma) supplemented with 10% FCS (Thermo Fisher). […]
# Total RNA from isolated epidermis of mice or from total skin was purified with Trizol, followed by additional purification with the RNeasy Mini Kit, including on-column DNase treatment (Qiagen, Hilden, Germany). […] Relative gene expression was determined using the Roche LightCycler 480 SYBR Green system (Roche, Rotkreuz, Switzerland).
# [4] = Active RAC1 detection after FGF7 treatment; assay type: cell-based, human; conditions: HaCaT cells, FGF7 10 ng/ml, 10 min
# Method: FIG. 4D pertains to mouse primary keratinocytes (left panel) or HaCaT cells (right panel), which had been treated with FGF7 (10 ng/ml) or vehicle for 10 min and analyzed for active RAC1 using the Active RAC1 detection kit (Cell Signaling). Activation of FGFR signaling under these conditions was verified by phosphorylation of ERK1/2 (p42/44).
# [5] = system: LCMV; assay type: cell-based, Lymphocytic Choriomeningitis Virus; conditions: HaCaT, LCMV MOI 0.05 or 0.2
# [6] = system: ISGs; conditions: cultured lung airway epithelial cells, Prince et al.; cited from earlier work
# [7] = system: HSV-1; experiment: HSV-1 infection of human primary foreskin keratinocytes; conditions: HSV-1 MOI=0.5, 24 h
molecule,measurement,setting,value
"FGF7: recombinant human FGF7, the classical ligand of FGFR2b (protein, UniProt P21781 32-194, looked up) Fibroblast growth factor 7: CNDMTPEQMATNVNCSSPERHTRSYDYMEGGDIRVRRLFCRTQWYLRIDKRGKVKGTQEMKNNYNIMEIRTVAVGIVAIKGVESEFYLAMNKEGKLYAKKECNEDCNFKELILENHYNTYASAKWTHNGGEMFVALNQKGIPVRGKKTKKEQKTAHFLPMAIT",HSV-1 infection / viral dissemination (Glyc-D staining),[1],stronger; also recorded: A strong increase in infected cells
same,"expression of Ifnα subtypes, Ifnβ and Il28a (Ifnλ2)","[2]; mouse keratinocytes, FGF7 10 ng/ml",not reduced
same,increase in ISG expression in response to IFNα,"[2]; mouse primary keratinocytes, FGF7 10 ng/ml and IFNα 1000 U/ml, 6 h",reduced
same,ISG expression (qRT-PCR relative to Rps29),"[2]; primary and immortalized keratinocytes from wild-type mice, FGF7 10 ng/ml, 3 or 6 h",strongly suppressed
same,expression of ISGs in IFNAR-deficient cells,"[2]; primary keratinocytes from Ifnar KO mice, FGF7 6 h",still suppressed expression of ISGs
same,increase in ISG expression in response to IFNα,[3],reduced
same,active RAC1,[4],activated RAC1
same,expression levels of LCMV nucleoprotein (NP) / viral replication,[5],strongly increased
same,expression of ISGs,[6],suppresses the expression of a limited number of ISGs
same,effect on HSV-1 infection (Glyc-B qPCR),[7],confirmed
